Laboratory results as given in IntAct's records for PubMed 26598606.

B1: Protein OPY2 (Saccharomyces cerevisiae), Q06810 (parent)
chain: MSSSSKASASSSLSSTATSSTSATRGSDGCVVCDSTASCPVCASGEYCVMTSLTCDKCPSTYCAKQSDSQLSSLSSSSSSSSSSNSNEKTSLIVGFTVGIVGGAMLIALVALYFINKRYWKPKRQKNKALKLEEASQSYGNEEEYFDDEDDDDEDDEDDGGMRKDESHTLFNTSLVPPTLNVPGNRSSASTTRTRASNILPIAYIPGVTSGLSTDKLQSKLRSSSKRQNAAGDIRSHITLGSSILDGLDDEDDEHNQVLNKDADDNLITAIRAKPKLVQIAEEESDKEIQDLDVIEEQTEADDLSHMAKSEASHGNNDEDDDEEGSFILDLEIPESIRESTQGSRTESPFEDKFEIHDER
partner: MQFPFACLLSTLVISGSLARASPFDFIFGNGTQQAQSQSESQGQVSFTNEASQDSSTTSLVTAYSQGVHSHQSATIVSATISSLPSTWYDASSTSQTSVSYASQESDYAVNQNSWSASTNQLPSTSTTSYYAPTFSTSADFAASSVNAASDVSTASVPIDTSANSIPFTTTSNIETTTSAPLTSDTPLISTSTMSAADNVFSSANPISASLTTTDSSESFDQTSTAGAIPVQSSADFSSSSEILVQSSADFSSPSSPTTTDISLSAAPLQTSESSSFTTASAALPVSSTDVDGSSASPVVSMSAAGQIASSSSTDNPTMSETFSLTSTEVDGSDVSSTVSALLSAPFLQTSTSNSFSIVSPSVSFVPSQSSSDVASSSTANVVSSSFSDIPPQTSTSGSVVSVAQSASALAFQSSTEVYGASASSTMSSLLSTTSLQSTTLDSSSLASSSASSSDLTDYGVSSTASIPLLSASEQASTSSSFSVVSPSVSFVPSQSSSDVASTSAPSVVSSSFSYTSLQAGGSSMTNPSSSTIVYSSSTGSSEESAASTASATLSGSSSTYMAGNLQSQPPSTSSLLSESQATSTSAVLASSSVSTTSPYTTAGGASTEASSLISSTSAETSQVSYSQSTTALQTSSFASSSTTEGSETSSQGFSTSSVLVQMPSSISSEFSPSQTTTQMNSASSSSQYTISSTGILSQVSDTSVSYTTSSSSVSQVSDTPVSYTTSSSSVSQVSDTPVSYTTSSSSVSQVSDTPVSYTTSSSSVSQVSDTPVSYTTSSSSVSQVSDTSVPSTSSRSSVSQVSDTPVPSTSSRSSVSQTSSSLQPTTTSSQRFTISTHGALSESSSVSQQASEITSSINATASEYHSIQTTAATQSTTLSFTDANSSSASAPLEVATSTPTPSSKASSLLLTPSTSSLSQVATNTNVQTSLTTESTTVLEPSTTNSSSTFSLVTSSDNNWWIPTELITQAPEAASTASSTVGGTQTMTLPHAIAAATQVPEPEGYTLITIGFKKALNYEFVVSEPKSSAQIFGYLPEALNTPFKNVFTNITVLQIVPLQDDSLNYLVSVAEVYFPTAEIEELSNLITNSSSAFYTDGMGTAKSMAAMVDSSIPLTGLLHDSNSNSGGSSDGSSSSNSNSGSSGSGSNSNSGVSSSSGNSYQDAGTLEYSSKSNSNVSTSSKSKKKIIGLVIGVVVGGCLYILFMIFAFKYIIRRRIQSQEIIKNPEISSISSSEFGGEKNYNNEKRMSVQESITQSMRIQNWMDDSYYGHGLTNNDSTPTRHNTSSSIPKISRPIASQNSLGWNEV

Variants of: B1
Settings: with msb2_yeast MSB2, P32334

effect of a mutation on the interaction | Variant
disrupting interaction strength | MSSSSKASASSSLSSTATSSTSATRGSDGAVVCDSTASCPVAASGEYCVMTSLTCDKCPSTYCAKQSDSQLSSLSSSSSSSSSSNSNEKTSLIVGFTVGIVGGAMLIALVALYFINKRYWKPKRQKNKALKLEEASQSYGNEEEYFDDEDDDDEDDEDDGGMRKDESHTLFNTSLVPPTLNVPGNRSSASTTRTRASNILPIAYIPGVTSGLSTDKLQSKLRSSSKRQNAAGDIRSHITLGSSILDGLDDEDDEHNQVLNKDADDNLITAIRAKPKLVQIAEEESDKEIQDLDVIEEQTEADDLSHMAKSEASHGNNDEDDDEEGSFILDLEIPESIRESTQGSRTESPFEDKFEIHDER [C30A;C42A]
disrupting interaction strength | MSSSSKASASSSLSSTATSSTSATRGSDGCVVADSTASAPVCASGEYCVMTSLTCDKCPSTYCAKQSDSQLSSLSSSSSSSSSSNSNEKTSLIVGFTVGIVGGAMLIALVALYFINKRYWKPKRQKNKALKLEEASQSYGNEEEYFDDEDDDDEDDEDDGGMRKDESHTLFNTSLVPPTLNVPGNRSSASTTRTRASNILPIAYIPGVTSGLSTDKLQSKLRSSSKRQNAAGDIRSHITLGSSILDGLDDEDDEHNQVLNKDADDNLITAIRAKPKLVQIAEEESDKEIQDLDVIEEQTEADDLSHMAKSEASHGNNDEDDDEEGSFILDLEIPESIRESTQGSRTESPFEDKFEIHDER [C33A;C39A]
decreasing interaction strength | MSSSSKASASSSLSSTATSSTSATRGSDGAVVCDSTASCPVCASGEYCVMTSLTADKCPSTYCAKQSDSQLSSLSSSSSSSSSSNSNEKTSLIVGFTVGIVGGAMLIALVALYFINKRYWKPKRQKNKALKLEEASQSYGNEEEYFDDEDDDDEDDEDDGGMRKDESHTLFNTSLVPPTLNVPGNRSSASTTRTRASNILPIAYIPGVTSGLSTDKLQSKLRSSSKRQNAAGDIRSHITLGSSILDGLDDEDDEHNQVLNKDADDNLITAIRAKPKLVQIAEEESDKEIQDLDVIEEQTEADDLSHMAKSEASHGNNDEDDDEEGSFILDLEIPESIRESTQGSRTESPFEDKFEIHDER [C30A;C55A]
decreasing interaction strength | MSSSSKASASSSLSSTATSSTSATRGSDGCVVADSTASCPVCASGEYCVMTSLTCDKAPSTYCAKQSDSQLSSLSSSSSSSSSSNSNEKTSLIVGFTVGIVGGAMLIALVALYFINKRYWKPKRQKNKALKLEEASQSYGNEEEYFDDEDDDDEDDEDDGGMRKDESHTLFNTSLVPPTLNVPGNRSSASTTRTRASNILPIAYIPGVTSGLSTDKLQSKLRSSSKRQNAAGDIRSHITLGSSILDGLDDEDDEHNQVLNKDADDNLITAIRAKPKLVQIAEEESDKEIQDLDVIEEQTEADDLSHMAKSEASHGNNDEDDDEEGSFILDLEIPESIRESTQGSRTESPFEDKFEIHDER [C33A;C58A]
